Experiment: label from the status in PepcDB records

Sequence	protein production
MPHRCAAQVVAGYRSTVSLVLVEHPRPEIAQITLNRPERMNSMAFDVMVPLKEALAQVSYDNSVRVVVLTGAGRGFSPGADHKSAGVVPHVENLTRPTYALRSMELLDDVILMLRRLHQPVIAAVNGPAIGGGLCLALAADIRVASSSAYFRAAGINNGLTASELGLSYLLPRAIGSSRAFEIMLTGRDVSAEEAERIGLVSRQVPDEQLLDACYAIAARMAGFSRPGIELTKRTLWSGLDAASLEAHMQAEGLGQLFVRLLTANFEEAVAARAEQRAPVFTDDT	failed
MPIGFLRSLTARHRNPVSNRRLARVLCFVAGAANAGGFLAVQQYTSHMSGIVSAIADDLVLQRYGLVVHGIGALASFLAGAGTTAILVNWARRARLRSEYAIPLLVEATLLLCFGLLGSHLNDMDWLFVPATVMLLCFMMGLQNALITKLSNAEIRTTHVTGMVTDIGIELGKLFYWNAAVRPNSRPVMADRHKLRLLTVLVGMFLVGGIVGAQAFSTLGYAATLPLAALLLIVAIIPVADDLLTRLLLRVHRADSARRARRWGARGR	failed
MPIHIGSSIPLMVEKMLTEMVKPSKHIPQQTLNLSTLDNDPYNEVIYKACYVFKAKNVADDDNRPEALLREALSDLLGYYYPLSGSLKRQESDRKLQLSCGGDGGGVPFTVATANVELSSLKNLENIDSDTALNFLPVLHVDIDGYRPFALQVTKFECGGFILGMAMSHAMCDGYGEGHIMCALTDLAGGKKKPMVTPIWERERLVGKPEDDQPPFVPGDDTAASPYLPTDDWVTEKITIRADSIRRLKEATLKEYDFSNETITTFEVIGAYLWKSRVKALNLDRDGVTVLGLSVGIRNVVDPPLPDGYYGNAYIDMYVPLTAREVEEFTISDIVKLIKEAKRNAHDKDYLQEELANTEKIIKMNLTIKGKKDGLFCLTDWRNIGIFGSMDFGWDEPVNIVPVVPSETARTVNMFMRPSRLESDMVGGVQIVVTLPRIAMVKFKEEMEALE	failed
MPIITKNTDTTCQTPPLLSIICPAYNQEAFVAQALDGFLSQQTRFNYEILINDDASTDGTARIIAQYAERHPTIIRAFYQQVNQYSQGLPCVPDLFAEARGRYIAYCEADDYWTDPRKLQLQVDFLESHPDYVITYHDAVAFDENGEYGVQLQGHLRADATALELQQARRLSTLTTCFRNVFSTMPPELNIRVAPLNDMCWWSLLGAHGKGKFMADIKPAAYRLHAGGVFSMRSDKRKLHMNLQTCSSLANYYNLQGNQALYEYFLMQTVCLSLAALTPSHKLQTLWQVASNVVVNLGRRLLPTTGKAHVQ	failed
MPINTLESSPWRGSRHDFCRERLEPLLDQAGIRINGDRPWDIRVHDPAFFRRMFADASLGLGESYVDGWWDCDRIDEFICRIIRAGLADRFRSWRDAVAALQARLFNLQHAARAFHVGQRHYDIGNDLYGCMLDRRMIYSCGYWKDATTLDEAQEAKLDLVFRKIGLEPGMRVLDIGCGWGGAARFAAEKYGVEVYGVTVSAEQARYAREICQGLPVTIELKDYRDIEGHFDRAYSLGMFEHVGCKNYGTYMKLVADRLPDDGLFLLHTIGINTSDNHGNPWVDRYIFPNSMLPSIAQIGTATENRLVMEDWQNFGPDYDRTLLTWYDRFEWHWPSLRPRYGDRFYRMWRFYLLSFAGAFRARYIQLWQIVLSPKGLTRRYDAPR	failed
MPKGLMLTDLAIAGLLLIVAKVIRVHTPLLQRMYIPSAVLAGLFGLVFGPAMLDLLPWTDTFTANASLLTAALFSALGLATDVPSPKVVAQRAGSLWAFNQIASVSQWLFAAMFGLLLTTFFWPEINPGFGVTMSAGFMGGHGSASVVGDIFTGLGWEDGFTLGLTFATVGIFISISIGMLMLQFALKMGWIRSFTTFDSMDEHERKGLVKPTEQEPVMKDTMSSLSVDSFAIHAALVVVVTAFSYVAANYLSSFHDKVQIPTFVTGFLGGMLVRIVAKQTKASRYLCDGAFKHAAGISTDYLIIFGISAIKITVLAQYLAPMIVLAIGGIAFTLWLIFWVAPRIMGDDWFEKGIFSWGWLTGTVAMGIALLRIVDPKMRSKVLDDYAIAYVPGSITDIFIISLMPIAMYNGMEWQALGVGLAYIAVVLFIWRFVFKRSGQTVTDAS	failed
MPKHEFSVDMTCGGCAEAVSRVLNKLGGVKYDIDLPNKKVCIESEHSMDTLLATLKKTGKTVSYLGLE	not failed
MPKLPPLSLYIHIPWCVQKCPYCDFNSHAQKSDIPEQDYIYHLLQDLQADLQRFKDSIQQRKLHSIFIGGGTPSLFSAESIAYLLKEIKKQIDFEDNIEITLEANPGTVEAERFKGYVSAGIMRISMGIQSFNDDKLQRLGRIHNAAEAKSAVNLAKVSGLKSFNLDLMHGLPNQTLEEALDDLRQAIELSPPHISWYQLTIEPNTMFAYRPPKLPDDDALWDIFEQGHQLLTMAGYQQYETSAYAKAGFQCKHNLNYWRFGDYLAIGCGAHGKLTFPTGEITRFSKTKHPKGYLRGEYLYEEKNVPKIDRPFEFFMNRFRLLEAVPKQEFEDYTGLSQSAVKNQIDFAIQQNYIVENADSWQITEHGKLFLNELLELFLTEELEHHHHHH	not failed
MPKPHETAVYTHGHHESVLRSHTWRTAENSAAYLLGSLRPHMRILDIGCGPGTITADLAERVPEGHVTGVDRSPEIVERARATAAARGLENTGFAVADVHALDYPDDTFCVVHAHQVLQHVGDPVRALREMRRVARPGGFIAVRDSDYGAMTWYPASSGMDDWLDLYHRVARANGGEPDAGRRLKAWALEAGFTDITATSATWTFTTPEEREWWSGLWADRTLASAYAERATEGGHATPERLRAVSAAWRDWGKHPESWFSVLHGEILCRKEA	failed
MPKVEIAPSEIKIPDNVLKAKLGFGGAEEIPEEFRKTVNRAYEELLDAAKPVVLWRDFEVDGSLSFDDMRLTGELATKHLSGSKIITVFLATLGKKVDEKIEEYFRKGEDLLAFFIDGIASEMVEYALRKVDAELRMKRSNLEGSFRISPGYGDLPLSLNKKIAEIFKEEVDVNVIEDSYVLVPRKTITAFVGWREKNEKQT	not failed
MPKVTVSIKVVPAVEDGRLHEVIDRAIEKISSWGMKYEVGPSNTTVEGEFEEIMDRVKELARYLEQFAKRFVLQLDIDYKAGGITIEEKVSKYR	not failed
MPLIPAVPGLADRRMYVFLLLLTLGSGMSFQGWNTLYTNFAVHGAGLSGAENGLVQSIREVPGLLTFGVIPLLLLLREHRLAALAVLVTGVGVMTAGLLPTLWGVVATTLVMSFGFHYFEAVNQSLILQYFDVRTAPLVMGRLRGLAAGGNLVMGALVYVLADLFAFSTLFCIMGAFATVAGAWALTRDPSDPARPAQRRSMVLRRRYWLFYLLTILAGARRQIFTVFSVFLLVEHFGYGVREVALLFIVNNAVNWFLNPLIGRAVNRFGEQHLLTVEYSVLVLVFLGYTVTDSPLVAAFLYVVDHIFFNFAIAIRTFFQKIADPADIAPSMAMSVAINHIAAVVMPVCGGMLWMLDYRIPFYVGAGLAVASLLATQRIGAELRLQGVKPC	failed
MPLKKLIEIGSADFSVSTTACVLQLSHREVPVRGKQSKVISGVLADETARLPFTAWVELPGIDIGSIIRIEGAQIRMFRGMPSINFLEHHHHHH	failed
MPLPSLKDQFGALIAASSVSCTQPELDQTNRPVVDLLASWLGDLGFRCEIREVSPGKFNLLASYGSGPGGLVLAGHTDTVPYDEALWSSDPLRLDERDGRWYGLGSCDMKGFFPLAIEALLPLLDQPFRQPLMILATCDEESSMAGARALAESGRPLGRATVIGEPTNLRPIRLHKGVMMERIEILGQSGHSSDPNLGRSALEAMHATIGELMALRGEWQRAWNNPQFSVPQPTLNFGCIHGGDNPNRICGQCSLEFDLRPLPGMQPKQLREAIRQRLRPLAERHQVSIDYQPLFPAVPPFEQAQDSELVRVAERLTGHRAEAVAFGTEAPYFQRLGSETLVLGAGDIACAHQPDEHLELARIEPMVGVLRRLIQHYCLTPAAD	failed
MPLPSSARALKKPRLDDEVRFLRSWIEKPLHMGAVMPSGKLLARTMAHYVDVNSDAPVVELGPGTGAITSALVERGVDQKRLVLVEYNPGFCALLRDRYPQAKVVQGDAYRLRDTLWNVLSAPASAVVSGLPLVTKPMLTRLRLIRDAFTALAPGAPFVQFTYAVVPPIPKSLPGVSTEASERIWMNLPPARVWVYRKD	failed
MPLRFTTRRAEGGSARRPLSIVSCPLFCPSEPNQFSPMLFRQINDAKLAQYAYLIGCQETGEALLVDPERDIDRYLDLAEREGLEITAVTETHIHADFLSGARELAERFDTTLYLSDEGDENWKYEWAQGPKQGGGDYDVTWLHDGDTFQVGSVEVTALHTPGHTPEHLSFLVTDRGGGADEPMGLLTGDFVFVGDLGRPDLLESAAQVEGAMEPSARTLYTSVQRVLEMPDHLQVWPAHGAGSACGKALGAVPQSTLGYEKQFNPMIDAAREGEDAFVEAILADQPEPQIYFARMKRDNKEGMPVLGSLPAPRELTVRELEDAAADEAPLVIDTRLDRSAYMANHIPGSLYAPMNDTFNTVVGSLVEDETTPIVLIADEGDVEEAVRDLVRIGYDNVTGFAEIDTLQRYFQAGGPSETIDEITFADFDAELQDEATGVLDVRYRSEYEEGHVEGALNASYTRMPEYETELPTDKTLLVHCGSGARAAAASSYLARTGHSVKYVNDHFANYEAASEEAVAA	failed
MPLTDTPPSVPQKPRRGRPRGAPDASLAHQSLIRAGLEHLTEKGYSSVGVDEILKAARVPKGSFYHYFRNKADFGLALIEAYDTYFARLLDQAFLDGSLAPLARLRLFTRMAEEGMARHGFRRGCLVGNLGQEMGALPDDFRAALIGVLETWQRRTAQLFREAQACGELSADHDPDALAEAFWIGWEGAILRAKLELRPDPLHSFTRTFGRHFVTRTQE	not failed
MPLTNNSTTKPQEIAAIDLGSNSFHMVIARVVNGALQVLGRLKQRVHLADGLDSNNMLSEEAIERGLACLALFAERLQGFSPDNVCIVGTHTLRQAANAETFLKRAAEVIPYPIEIISGQEEARLIFMGVEHTQPEKGRKLVIDIGGGSTEMVIGEDFEPLLVESRRMGCVSFAQQFFPGGEISKNNFRRARLAAAQKLENLAWQYRIQGWQYALGASGTIKATYEVLVEMGEKDGLITPERLEMLVENVLQFKQFSALSLPGLSEDRQSVFVPGLAILCGVFDALAIKTLRLSDGALREGVLYEMEGRFRHQDIRQRTAKSLADHYNIDREQARRVLETTEQLYTQWLAQNTKLVQPQLEALLKWAAMLHEVGLSINHSGMHRHSAYILQNTNLPGFNQEQQTLLATLVRMHRKAIKLDELPRLNLFKKKYYLPLIQLLRLSTLLNNQRQSTTTPESLRLITDDSHWTLRFPHGYLTQNSLVQLDFEREQAYWDDVVGWKLVIEEEEPDEAAKVAPEE	not failed
MPLVKRNIDPRHLCHTALPRGIKNELECVTNISLANIIRQLSSLSKYAEDIFGELFNEAHSFSFRVNSLQERVDRLSVSVTQLDPKEEELSLQDITMRKAFRSSTIQDQQLFDRKTLPIPLQETYDVCEQPPPLNILTPYRDDGKEGLKFYTNPSYFFDLW	failed
MPLVTRNIEPRHLCRQTLPSVRSELECVTNITLANVIRQLGSLSKYAEDIFGELFTQANTFASRVSSLAERVDRLQVKVTQLDPKEEEVSLQGINTRKAFRSSTIQDQKLFDRNSLPVPVLETYNTCDTPPPLNNLTPYRDDGKEALKFYTDPSYFFDLWKEKMLQDTKDIMKEKRKHRKEKKDNPNRGNVNPRKIKTRKEEWEKMKMGQEFVESKEKLGTSGYPPTLVYQNGSIGCVENVDASSYPPPPQSDSASSPSPSFSEDNLPPPPAEFSYPVDNQRGSGLAGPKRSSVVSPSHPPPAPPLGSPPGPKPGFAPPPAPPPPPPPMIGIPPPPPPVGFGSPGTPPPPSPPSFPPHPDFAAPPPPPPPPAADYPTLPPPPLSQPTGGAPPPPPPPPPPGPPPPPFTGADGQPAIPPPLSDTTKPKSSLPAVSDARSDLLSAIRQGFQLRRVEEQREQEKRDVVGNDVATILSRRIAVEYSDSEDDSSEFDEDDWSD	not failed

— a protein production outcome set (Wang et al. 2014)
